Results from patent US8729012, “Controllable assembly and disassembly of nanoparticle systems via protein and DNA agents” (Brookhaven Science Associates, LLC).

What was measured:
[1] = target: T1, gene 5 protein (g5p) (bacteriophage M13, UniProt P69544 P69544:1-87); assay: EMSA; three sequential stages: anti-parallel ssDNA region shifted at 10 uM g5p, then ssDNA tail, then dsDNA over 35 uM; 1 uM DNA, 10 mM Tris-HCl pH 7.4, 200 mM NaCl; conditions: tags: His-tag (pET-30b, expressed in E. coli BL21-DE3; gene from NEB M13); chain copies: 2 inferred (homodimer); 19 bp duplex, two anti-parallel T32 single strands, 3' ssDNA tail of 15 nt
T1 sequence: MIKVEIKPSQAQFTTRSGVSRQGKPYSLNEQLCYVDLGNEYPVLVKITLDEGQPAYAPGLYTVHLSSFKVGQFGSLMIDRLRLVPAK
Method: To study the distinct binding properties of g5p and its preferential DNA topology, an exemplary DNA structure with three distinct regions has been designed: a 19 base paired double-stranded DNA (dsDNA) region, followed by a 32 nucleotide anti-parallel poly-T ssDNA region, and a 3' extended ssDNA tail of 15 nucleotides. The DNA structure ([…]) was titrated with g5p (in 10 mM Tris-HCl, pH=7.4, 200 mM NaCl), and g5p binding was studied using the electrophoretic mobility shift assay. […] Since g5p has a much lower affinity to dsDNA than to ssDNA at high salt concentration, the following order of occupancy is hypothesized: binding to the anti-parallel ssDNA region with a large shift of the DNA band at 10 μM g5p, followed by binding to the ssDNA tail, and finally to dsDNA at g5p concentrations over 35 μM. Thus, g5p binds to ssDNA regions before it binds to the dsDNA region, and its binding affinity for the anti-parallel region is slightly higher than for the ssDNA tail. […] By comparing the intensity of the band in the presence of 30 μM g5p to the band under control conditions without g5p, the hybridization efficiency for C-ssDNA to the g5p-complexed ssDNA tail was determined to be approximately 82%, indicating effective DNA hybridization without significant inhibition by g5p. […]

[2] = target: T1, gene 5 protein (g5p); assay: EMSA; C-ssDNA added to the complex; 20 and 30 uM g5p shifts collapse to one band of higher mobility (anti-parallel region bound); tail hybridization about 82% at 30 uM g5p; conditions: tags: His-tag (pET-30b, expressed in E. coli BL21-DE3; gene from NEB M13); chain copies: 2 inferred (homodimer); 19 bp duplex, anti-parallel T32 strands, tail hybridized as 15 bp duplex
Method: Since g5p has a much lower affinity to dsDNA than to ssDNA at high salt concentration, the following order of occupancy is hypothesized: binding to the anti-parallel ssDNA region with a large shift of the DNA band at 10 μM g5p, followed by binding to the ssDNA tail, and finally to dsDNA at g5p concentrations over 35 μM. Thus, g5p binds to ssDNA regions before it binds to the dsDNA region, and its binding affinity for the anti-parallel region is slightly higher than for the ssDNA tail. To study the effect of g5p association on forming dsDNA heteroduplexes, and confirm the proposed binding order to the ssDNA regions, an equal amount (1 μM) of C-ssDNA that can hybridize to the ssDNA tail was added. […] Smearing of the band after C-ssDNA addition at 45 μM g5p supports g5p binding to dsDNA at this concentration. […]
(§1) The DNA for the binding study was obtained by annealing of two ssDNA with sequences, 5'-GACCACATACCGCAC-CATC(T)$32$CTGCTACGAGACTTC-3' (SEQ ID NO. 7) and 5'-(T)$32$GATGGTGCGGTATGTGGTC-3' (SEQ ID NO. 8), respectively. […] Relative intensities of the DNA bands were analyzed after ethidium bromide staining Characterization UV-Visible spectra were obtained using a PerkinElmer Lambda 35 spectrometer. DLS was measured using a Malvern Zetasizer ZS instrument that is equipped with a 633 nm laser and a backscattering detector at 173°.

[3] = target: T1, gene 5 protein (g5p); assay: g5p-dependent nanoparticle assembly by DLS, UV-vis, TEM; 10 mM Tris-HCl pH 7.44, 200 mM NaCl; conditions: tags: His-tag (pET-30b, expressed in E. coli BL21-DE3; gene from NEB M13); chain copies: 2 inferred (homodimer)
Method: (§2) The SP band is associated with isolated Au and assembled nanostructures. After adding increased g5p concentrations, the SP band at 525 nm of isolated ssDNA-Au was red-shifted with band broadening, indicative of either a decrease in interparticle distances or an increase of aggregate size (FIG. 7B). The higher extinction intensity observed over 10 μM g5p is due to a […] of the solution's turbidity resulting from the formation of larger aggregates. […] The sizes and morphologies of the g5p-mediated ssDNA-Au assemblies were studied using transmission electron microscopy (TEM) (FIG. 7C). […] Polyhistidine-tagged YieF protein (MW=20 KDa) was used as a negative control, for which no aggregation of particles was observed during DLS and UV-vis studies (FIGS. 8A and 8B).
as §1, with “respectively. The annealed DNA (1 µM) was incubated with g5p at 37° C. for 10 minutes.” for “respectively.”, “173°. […]” for “173°.”

[4] = target: T2, YieF (UniProt P0AGE6 P0AGE6:1-188); assay: negative control, no aggregation by DLS (2.5 uM) or UV-vis (15 uM); conditions: tags: polyhistidine
T2 sequence: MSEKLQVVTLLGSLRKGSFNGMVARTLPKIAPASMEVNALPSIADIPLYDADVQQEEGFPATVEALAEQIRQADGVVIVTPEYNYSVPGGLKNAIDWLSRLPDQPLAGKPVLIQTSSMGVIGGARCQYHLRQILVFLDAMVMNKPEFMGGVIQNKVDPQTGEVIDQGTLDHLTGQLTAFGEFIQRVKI
Method: as §2
as §1, with “respectively. The annealed DNA (1 µM) was incubated with g5p at 37° C. for 10 minutes.” for “respectively.”, “173°. […]” for “173°.”

B1: annealed 19 bp dsDNA / anti-parallel poly-T32 / 15 nt ssDNA tail (structured_DNA)
DNA 1: GACCACATACCGCACCATCTTTTTTTTTTTTTTTTTTTTTTTTTTTTTTTTCTGCTACGAGACTTC
DNA 2: TTTTTTTTTTTTTTTTTTTTTTTTTTTTTTTTGATGGTGCGGTATGTGGTC
Does B1 bind [1]?
Result: binds

B2: annealed DNA with tail hybridized to C-ssDNA (structured_DNA)
DNA 1: B1 DNA 1
DNA 2: B1 DNA 2
DNA 3: GAAGTCTCGTAGCAG
Does B2 bind [2]?
Result: binds

B3: ssDNA on gold nanoparticles (ssDNA-Au) (ssDNA)
DNA: TTTTTTTTTTTTTTTTAACCTAACCTTCAT
modifications: 5'-HS-C3H6, about 50 copies per gold nanoparticle
Which results are given for B3?
binding result [3]: binds; binding result [4]: no binding
